Legend:
[1] = target: GFP-MAGI1 Y373F (human MAGI1c-Y373F-GFP) (UniProt Q96QZ7)
[2] = target: GFP-tagged MAGI1 WT (human MAGI1c, pCMV6-AC-GFP-MAGI1c WT, Origene #RG212712) (UniProt Q96QZ7)
[3] = target: myc-tagged MAGI1 deletion of GUK domain (murine, pCDNA3.1) (UniProt Q6RHR9)
[4] = target: myc-tagged MAGI1 deletion of GUK-WW domains (murine, pCDNA3.1) (UniProt Q6RHR9)
[5] = target: myc-tagged MAGI1 deletion of WW domain (murine, pCDNA3.1) (UniProt Q6RHR9)
Sequence of myc-tagged MAGI1 deletion of WW domain (murine, pCDNA3.1) (Q6RHR9 other isoform, or with tags, fused parts or gaps): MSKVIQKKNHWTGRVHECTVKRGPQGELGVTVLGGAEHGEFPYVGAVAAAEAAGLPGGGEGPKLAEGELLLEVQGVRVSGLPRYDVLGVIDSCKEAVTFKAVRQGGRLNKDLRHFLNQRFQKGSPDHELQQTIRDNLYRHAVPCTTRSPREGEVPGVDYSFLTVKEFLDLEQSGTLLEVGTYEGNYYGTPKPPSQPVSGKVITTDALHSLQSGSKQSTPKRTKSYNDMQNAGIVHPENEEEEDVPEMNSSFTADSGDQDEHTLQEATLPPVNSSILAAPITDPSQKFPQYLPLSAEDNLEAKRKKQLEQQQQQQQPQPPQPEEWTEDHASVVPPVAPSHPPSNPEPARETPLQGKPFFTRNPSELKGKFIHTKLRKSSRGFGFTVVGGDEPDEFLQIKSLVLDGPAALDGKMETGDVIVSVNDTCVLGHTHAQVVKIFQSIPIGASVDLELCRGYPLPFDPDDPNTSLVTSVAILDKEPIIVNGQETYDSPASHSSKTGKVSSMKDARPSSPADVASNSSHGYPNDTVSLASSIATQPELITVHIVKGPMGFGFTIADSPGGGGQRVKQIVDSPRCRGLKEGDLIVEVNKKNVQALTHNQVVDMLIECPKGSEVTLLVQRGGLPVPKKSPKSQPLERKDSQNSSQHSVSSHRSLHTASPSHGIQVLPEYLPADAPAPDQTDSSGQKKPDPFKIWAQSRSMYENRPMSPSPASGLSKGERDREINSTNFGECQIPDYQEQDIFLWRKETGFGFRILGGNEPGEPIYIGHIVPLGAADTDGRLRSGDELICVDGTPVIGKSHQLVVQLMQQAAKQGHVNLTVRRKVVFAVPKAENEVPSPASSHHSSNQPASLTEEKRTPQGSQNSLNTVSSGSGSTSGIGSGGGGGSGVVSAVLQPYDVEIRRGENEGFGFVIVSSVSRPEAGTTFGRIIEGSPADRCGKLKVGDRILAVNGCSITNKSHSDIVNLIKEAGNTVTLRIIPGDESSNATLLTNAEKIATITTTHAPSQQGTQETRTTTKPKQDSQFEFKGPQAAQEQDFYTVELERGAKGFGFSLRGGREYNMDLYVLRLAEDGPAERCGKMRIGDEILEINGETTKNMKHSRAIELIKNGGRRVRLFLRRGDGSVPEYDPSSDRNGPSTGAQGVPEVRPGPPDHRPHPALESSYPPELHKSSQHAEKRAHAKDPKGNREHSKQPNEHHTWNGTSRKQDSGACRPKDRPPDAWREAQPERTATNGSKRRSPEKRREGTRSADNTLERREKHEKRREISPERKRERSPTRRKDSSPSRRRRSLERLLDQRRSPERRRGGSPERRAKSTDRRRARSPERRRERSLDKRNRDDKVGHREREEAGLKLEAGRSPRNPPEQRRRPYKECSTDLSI

Sequence of myc-tagged MAGI1 deletion of GUK domain (murine, pCDNA3.1) (Q6RHR9 other isoform, or with tags, fused parts or gaps): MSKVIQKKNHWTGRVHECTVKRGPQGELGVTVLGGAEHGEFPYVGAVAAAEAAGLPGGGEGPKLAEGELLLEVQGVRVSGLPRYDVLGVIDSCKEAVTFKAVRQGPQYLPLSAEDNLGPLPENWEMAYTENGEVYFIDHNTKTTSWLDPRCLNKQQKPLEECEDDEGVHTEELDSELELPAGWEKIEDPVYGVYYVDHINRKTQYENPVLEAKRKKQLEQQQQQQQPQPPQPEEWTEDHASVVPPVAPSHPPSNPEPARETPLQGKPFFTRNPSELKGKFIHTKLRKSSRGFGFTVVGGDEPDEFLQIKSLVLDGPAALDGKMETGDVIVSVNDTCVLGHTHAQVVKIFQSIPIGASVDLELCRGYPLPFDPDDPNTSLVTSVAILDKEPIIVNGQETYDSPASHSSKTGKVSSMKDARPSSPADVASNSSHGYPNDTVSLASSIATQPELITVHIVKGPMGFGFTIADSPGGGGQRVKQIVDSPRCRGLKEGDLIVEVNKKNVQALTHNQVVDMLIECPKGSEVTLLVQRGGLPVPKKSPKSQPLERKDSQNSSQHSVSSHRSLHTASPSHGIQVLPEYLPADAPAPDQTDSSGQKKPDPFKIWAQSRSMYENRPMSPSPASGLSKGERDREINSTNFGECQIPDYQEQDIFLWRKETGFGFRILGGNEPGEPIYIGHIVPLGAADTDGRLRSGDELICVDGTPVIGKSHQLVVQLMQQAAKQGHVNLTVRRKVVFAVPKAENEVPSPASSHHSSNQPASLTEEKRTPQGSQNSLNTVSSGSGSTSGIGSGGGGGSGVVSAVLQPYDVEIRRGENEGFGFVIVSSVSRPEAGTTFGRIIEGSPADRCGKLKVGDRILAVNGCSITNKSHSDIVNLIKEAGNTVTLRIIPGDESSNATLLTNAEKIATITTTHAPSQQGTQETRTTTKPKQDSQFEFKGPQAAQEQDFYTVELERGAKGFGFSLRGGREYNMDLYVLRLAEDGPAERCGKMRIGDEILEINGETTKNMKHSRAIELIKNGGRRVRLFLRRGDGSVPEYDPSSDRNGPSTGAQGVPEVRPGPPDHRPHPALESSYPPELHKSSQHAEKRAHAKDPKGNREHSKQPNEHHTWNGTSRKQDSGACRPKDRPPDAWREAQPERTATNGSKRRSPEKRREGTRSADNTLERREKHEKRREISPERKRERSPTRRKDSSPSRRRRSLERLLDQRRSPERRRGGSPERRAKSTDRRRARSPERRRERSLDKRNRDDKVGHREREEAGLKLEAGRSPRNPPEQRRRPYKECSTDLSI
Sequence of GFP-tagged MAGI1 WT (human MAGI1c, pCMV6-AC-GFP-MAGI1c WT, Origene #RG212712) (Q96QZ7 other isoform, or with tags, fused parts or gaps): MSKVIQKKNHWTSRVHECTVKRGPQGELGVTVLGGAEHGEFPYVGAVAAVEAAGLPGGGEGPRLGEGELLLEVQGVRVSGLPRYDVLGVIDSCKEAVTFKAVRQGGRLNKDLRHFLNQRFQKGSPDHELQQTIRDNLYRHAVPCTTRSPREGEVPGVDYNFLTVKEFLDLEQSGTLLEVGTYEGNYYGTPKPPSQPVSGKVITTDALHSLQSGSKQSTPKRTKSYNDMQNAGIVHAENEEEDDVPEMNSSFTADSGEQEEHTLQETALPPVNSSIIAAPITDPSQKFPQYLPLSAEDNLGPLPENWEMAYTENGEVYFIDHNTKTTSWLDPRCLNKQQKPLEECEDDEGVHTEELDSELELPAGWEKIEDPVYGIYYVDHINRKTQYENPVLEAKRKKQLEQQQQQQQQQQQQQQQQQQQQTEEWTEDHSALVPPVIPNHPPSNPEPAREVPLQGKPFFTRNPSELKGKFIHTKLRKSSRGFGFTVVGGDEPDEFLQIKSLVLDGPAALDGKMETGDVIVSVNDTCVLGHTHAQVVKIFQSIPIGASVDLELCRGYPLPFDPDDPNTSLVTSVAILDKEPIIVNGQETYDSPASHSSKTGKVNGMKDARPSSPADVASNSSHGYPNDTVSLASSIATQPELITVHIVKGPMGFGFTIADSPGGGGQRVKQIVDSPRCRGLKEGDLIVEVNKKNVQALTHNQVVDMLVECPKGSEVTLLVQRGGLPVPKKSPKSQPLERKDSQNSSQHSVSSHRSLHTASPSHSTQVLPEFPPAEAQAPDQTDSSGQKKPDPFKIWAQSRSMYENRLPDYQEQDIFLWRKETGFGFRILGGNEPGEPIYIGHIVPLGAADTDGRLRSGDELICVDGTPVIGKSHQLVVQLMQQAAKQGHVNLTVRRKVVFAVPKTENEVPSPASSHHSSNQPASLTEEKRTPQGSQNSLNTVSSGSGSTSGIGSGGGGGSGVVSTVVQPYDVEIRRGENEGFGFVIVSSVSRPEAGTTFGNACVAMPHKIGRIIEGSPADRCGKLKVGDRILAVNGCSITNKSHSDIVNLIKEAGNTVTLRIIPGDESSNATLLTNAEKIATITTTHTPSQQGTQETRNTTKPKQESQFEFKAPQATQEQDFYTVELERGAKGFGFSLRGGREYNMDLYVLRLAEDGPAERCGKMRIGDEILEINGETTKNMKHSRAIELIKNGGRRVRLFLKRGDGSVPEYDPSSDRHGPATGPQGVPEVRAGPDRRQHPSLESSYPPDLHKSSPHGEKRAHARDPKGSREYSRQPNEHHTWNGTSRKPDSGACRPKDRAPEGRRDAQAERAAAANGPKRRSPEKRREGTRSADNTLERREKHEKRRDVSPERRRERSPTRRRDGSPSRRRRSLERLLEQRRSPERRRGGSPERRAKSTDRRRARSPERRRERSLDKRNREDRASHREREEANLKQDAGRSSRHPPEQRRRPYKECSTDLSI
Sequence of GFP-MAGI1 Y373F (human MAGI1c-Y373F-GFP) (Q96QZ7 other isoform, or with tags, fused parts or gaps Y373F Y373F): as the sequence (Q96QZ7 other isoform, or with tags, fused parts or gaps) above, with Y373F counted along it

proto-oncogene tyrosine-protein kinase Src (SRC), wild type, expressed from pCMV SRC WT in 293T cells
phosphorylation of MAGI1 at Y373 (western blot with rabbit antisera against pMAGI1 Y373, 293T co-expression) [1]: co-expression of SRC and WT MAGI1 but not Y373F mutant resulted in strong phosphorylation of MAGI1 at Y373 | phosphorylation of MAGI1 at Y373 (western blot with rabbit antisera against pMAGI1 Y373, 293T co-expression) [2]: co-expression of SRC and WT MAGI1 but not Y373F mutant resulted in strong phosphorylation of MAGI1 at Y373 | Y373 phosphorylation (western blot with pMAGI1 Y373 antisera, 293T co-expression) [3]: Y373 phosphorylation was abolished when WW domain was absent but not GUK | Y373 phosphorylation (western blot with pMAGI1 Y373 antisera, 293T co-expression) [4]: Y373 phosphorylation was abolished when WW domain was absent but not GUK | Y373 phosphorylation (western blot with pMAGI1 Y373 antisera, 293T co-expression) [5]: Y373 phosphorylation was abolished when WW domain was absent but not GUK

From US20250057840
